Test results: paper PMC8531726

Tested on: T1, Zur (Pseudomonas aeruginosa), ORF:f39b2fc0
T1 sequence: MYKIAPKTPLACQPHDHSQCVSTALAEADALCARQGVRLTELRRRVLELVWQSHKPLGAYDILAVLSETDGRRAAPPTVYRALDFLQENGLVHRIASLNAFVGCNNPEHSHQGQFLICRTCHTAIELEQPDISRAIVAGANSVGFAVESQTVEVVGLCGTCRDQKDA
Assay: EMSA
Details: EMSA: 30 ng DNA, 500 nM Zur, 5X Zn-less binding buffer (50 mM Tris, 200 mM KCl, 50 mM MgCl2, 5 mM DTT, 25% glycerol; 5X [sic], pH not given), 5 uM ZnCl2 …

| Sequence | binding |
| --- | --- |
| ACTTTCCCGTTCCTCTTCGCCGGCAGGCATGCGGACATTGCCGCTGCACGTCGGCACGACGCCATGCAGAGTGGCTACGCGGGTCTACCGACACAAAAAGAAATAATATAACATCCCAATAAATACGCCGATCCGACCCCGTCGCCCTTCCTCCGGGAAGGGCCTGGGTTCGCTTTGGCCTGAAAAAAGTCCGACCCA (double strand) [pznuD] | binds |
| AGAAGTCCTGCTGGGCTTCGTCCATGTAGGCAGCGTCGGGCTGGGCAAGCAGTTCCTGTTCGGTCATGGGCTGAACCTGGGAAATTTAAAACGTTATACTATAACAATTAACACCACAATCGATGGCCCGCCAATCGCCTTCCGGCTACCCTGGGCCCACGTCATCCCGGGATCCACCGATGCGCCGCGTCCTCCGCCTTTACT (double strand) [pdksA2] | binds |
| ATGGGCCTGGGCGGCGAACGGCAGCAAGACGAGGGCTAACAGCAGTGGGCGCATGAACGGGACTCCGGCAAGGAAGGAAAAGAGTTTGTTACGTTATAACGAATTTTTCCGCCTGCCTAGCCTGGCCGATTTGGCCCCTACGCGCCGACGTGGGAGCATGGCGCGATTCGCTTGTGGAGAAAC (double strand) [pPA4063] | binds |
| CATAGCAGGCCGGCGTGAAGAAAATGTGATGACCCGGGAAGCTGCGCCAGGGCGTGGGGTCCGGCGAAGAAAGACTGCACAAGCGAATTGTTATAGTATAACATTTTATTCAATCCAGATCGTTCAAGGCTTGACTGGAAACGGTGCGGATGTTCCCATCCGGCCCGTTCCAGGTGCCTCCTGCCGCCGCGCAGGAGGTGAAACGGGAAGCCGGTGCGTCACTTCGGTGA (double strand) [pPA2911] | binds |
| CTCTGCCAGACCAGTTCCAGCACGCGCCGCCGCAGTTCGGTCAGGCGCACGCCCTGGCGCGCGCACAGCGCATCGGCCTCGGCCAGCGCGGTGCTGACGCACTGGCTGTGGTCATGGGGCTGGCAGGCCAGCGGGGTCTTGGGCGCAATCTTGTACATGGGCTGCGACGCTCGAGGGTAGAGACGTTATTATATTACCCGCTAACCACCTTTCA (double strand) [pznuA] | binds |
| GAGCGCCATGATCTGCTCGGTTGCGGTCATCTTTCCTCCTGGGGGGCATGCCCGGTTGAGAGTGGGGTCCTGTGCTTCGAGGGATACGGCGAGCGAGACGTTCCCTCGCCTCGATGAAGAAGAAACGGCGGGCATTCTTCATTCGAAGAAATGTTATGTTATAACTTATAAGTATTTATAATTCATACCTGCCGACCATGACCCCCCATTCCTCCCCGCACCGTCTTCCTCCGCTGCGGCTGGCCCGCGCCGTGCCGTTCCTCTACCTGCTTC (double strand) [pPA1922] | binds |
| GGCTGGGCTGGTCGTCGGAAAAGAGGGATGAGTATCACAGCCTGGCGGCGAGAAGCGAGATAGAGCCGGGCATTGTATTGCGAGGCCGGAATCGAACTGGTAGCGTTATAGTATATCATTTCTTTTCTGGTGCGATTTCCCATGAGAGTCAGTGTGTCGCTTGTCCTCGGTGTCGGCCTCGGTTGCAGCAGTCCGGCGCTCTGGGCGGAAACGGAAAGTCCCGCGG (double strand) [pzrmA] | binds |
| GTGCTGCACACAGACTCTCGTCTTCCAGTCAAGAGCCTTGGGATGCAGACTGTTTTTCAAATCATGACAACTTCTTAACGCGCATTGTTATAAAGTTGCGGGCGTTTGCGCCGGCCTGGCCGGTACCTTCGAGTTTTGCCTGGAGTGAAGATGAGAGTCGACCTGGAC (double strand) [pPA2439] | binds |
| TCGAGCAGCCGAATGGTCGCCGGGAACTCTTTCCGGAGTTGCGAATTATTCTTATCGGAGTAATATGTAACTATATAACATTATGTAGGAGGCATCCCCATGAAACCCGGCATCCATCCCGAATACCGTCCCGTCCTGTTCCATGACACCTCGGCCGACGTGTACTTCCTGATCGGCTCCACC (double strand) [prpmE2] | binds |
